Biological target: SSB C-terminal peptide (SSB-Ct peptide) (E. coli)
Assay: ITC

Sequence of PriA DNA helicase (P17888 whole entry): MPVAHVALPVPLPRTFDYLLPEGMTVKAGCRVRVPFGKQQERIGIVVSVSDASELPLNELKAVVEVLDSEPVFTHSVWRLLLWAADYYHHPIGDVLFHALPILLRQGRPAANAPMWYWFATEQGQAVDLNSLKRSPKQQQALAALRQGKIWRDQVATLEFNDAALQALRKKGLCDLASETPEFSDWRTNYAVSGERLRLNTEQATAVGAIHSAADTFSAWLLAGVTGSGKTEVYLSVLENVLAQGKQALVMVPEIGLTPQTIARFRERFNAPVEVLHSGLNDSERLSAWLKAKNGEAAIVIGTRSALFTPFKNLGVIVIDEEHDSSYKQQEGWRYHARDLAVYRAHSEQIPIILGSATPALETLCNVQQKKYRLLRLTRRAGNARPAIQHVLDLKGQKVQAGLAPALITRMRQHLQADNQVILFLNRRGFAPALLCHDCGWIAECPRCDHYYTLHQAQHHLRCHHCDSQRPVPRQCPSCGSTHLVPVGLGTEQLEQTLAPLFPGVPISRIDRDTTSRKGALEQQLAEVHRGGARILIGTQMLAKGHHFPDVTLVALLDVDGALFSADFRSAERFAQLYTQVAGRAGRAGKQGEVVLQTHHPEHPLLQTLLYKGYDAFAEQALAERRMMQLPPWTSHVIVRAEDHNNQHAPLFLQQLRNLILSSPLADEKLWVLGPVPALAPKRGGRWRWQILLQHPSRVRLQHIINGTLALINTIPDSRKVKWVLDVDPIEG
Sequence of χ subunit of the DNA polymerase III holoenzyme (P28905 whole entry): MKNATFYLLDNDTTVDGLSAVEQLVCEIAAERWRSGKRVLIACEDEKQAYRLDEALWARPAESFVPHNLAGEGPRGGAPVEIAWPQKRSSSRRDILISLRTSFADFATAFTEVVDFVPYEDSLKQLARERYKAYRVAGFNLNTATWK

Row | Substance | Ka [M⁻¹] | dH [kcal/mol]
1 | PriA DNA helicase (from UniProt P17888 1-732) (enzyme) | 1.8e+06 | -6.9
2 | χ subunit of the DNA polymerase III holoenzyme (from UniProt P28905 1-147) (natural protein) |  | -8.6
